Measured values reported in patent US8551493B2, “Peptide with reduced dimer formation” (Circassia Limited, priority 2007, dated 2013).
Where no end group is shown, it is not given here. [ ]: non-standard residue; d: D form. Abu = CC[C@H](N)C(=O)O

Tests used:
PBMCs [1] = experiment: IL-10 cytokine release assay on PBMCs from seven ragweed allergic individuals; type: cell-based, human; details: for IL-10: ragweed allergic, PBMC supernatant
From the text: The following Table presents results from a cytokine release assay performed on PBMCs taken from seven ragweed allergic individuals (A-G).

PBMCs [2] = experiment: IFN-gamma production by PBMCs from ragweed allergic individuals (FIG. 2); type: cell-based, human; details: PBMCs from a population of ragweed allergic individuals
Protocol: Using methods equivalent to those in Example 2, these peptides were tested for the ability to induce cytokine production in PBMCs taken from a population of ragweed allergic individuals.

[3] = Dimer formation of individual peptides and binary peptide mixtures, RP-HPLC; type: physicochemical
Protocol: The peptides used in this study have a minimum purity of >90%. The effectiveness of each additive to reduce dimer formation was assessed by size exclusion chromatography (SEC) and RP-HPLC. In SEC, molecules are separated based upon their apparent molecular weight. Smaller molecules can distribute into a greater proportion of the column matrix and are retained for longer than analytes of higher molecular weight. Dimers will elute from the column with an apparent molecular weight approximately twice that of the corresponding monomers. Separation by RP-HPLC separates species based on differences in their hydrophobicities. The amount of dimer formed is determined as a percentage of the total peak area ratio (% PAR) for the chromatogram.
Following the generation of data from the preliminary screening a further piece of work was undertaken to evaluate the ability of matrices containing Cysteine hydrochloride and 1-thioglycerol to inhibit the propensity of individual cysteine containing peptides and mixed pairs of these peptides to dimerize compared to the matrix alone. For each excipient mixtures of all the possible binary peptide combinations were prepared. […] The amount of dimer formed is determined as a percentage of the total peak area ratio (% PAR) for the chromatogram in each case.

PBMCs [4] = experiment: Cytokine release assay (IFN-γ, IL-13) on PBMCs from house dust mite allergic individuals; type: cell-based, human; details: number of responders, N = 55 house dust mite allergic individuals; positive = at least 100 pg/ml of cytokine
From the text: The following Table presents results from a cytokine release assay performed on PBMCs taken from a population of house dust mite allergic individuals (N=number of individuals in population). A positive response is considered to be production of at least 100 pg/ml of cytokine.

PBMCs [5] = experiment: IL10 production assay in house dust mite allergic individuals (FIG. 1); type: cell-based, human; details: population of 34 house dust mite allergic individuals
Protocol: A typical cytokine release assay requires 40×10^6 PBMC's per subject. In more detail, 250 μl of a 200 μg/ml solution of the appropriate antigen or peptide concentration is distributed into the appropriate wells of 48 well plates. Plates are the incubated in a humidified 5% CO2 incubator at 37° C. for a maximum of 4 hours. 250 μl of a 5×10^6 cell/ml PBMC suspension is then added to each well and the plates returned to the incubator for 5 days. Following stimulation, samples of culture supernatant are harvested for testing by ELISA or multiplex bead assay according to standard protocols.

[6] = T = 1 week, 25° C./60% RH, Control matrix, individual peptide sample
[7] = T = 1 week, 25° C./60% RH, Control matrix, mixed sample MLA01 and MLA12
[8] = T = 1 week, 25° C./60% RH, Control matrix, mixed sample MLA04 and MLA12
[9] = T = 1 week, 25° C./60% RH, Control matrix, mixed sample MLA05 and MLA12
[10] = T = 1 week, 25° C./60% RH, Cysteine matrix, mixed sample MLA01 and MLA12
[11] = T = 72 h, Control matrix, individual peptide sample
[12] = T = 72 h, Control matrix, mixed sample MLA01 and MLA12
[13] = T = 72 h, Control matrix, mixed sample MLA04 and MLA12
[14] = T = 72 h, Control matrix, mixed sample MLA05 and MLA12
[15] = T = 0, Control matrix, individual peptide sample
[16] = T = 0, Control matrix, mixed sample MLA01 and MLA05
[17] = T = 1 week, 25° C./60% RH, Control matrix, mixed sample MLA01 and MLA05
[18] = T = 1 week, 25° C./60% RH, Control matrix, mixed sample MLA04 and MLA05
[19] = T = 72 h, Control matrix, mixed sample MLA01 and MLA05
[20] = T = 72 h, Control matrix, mixed sample MLA04 and MLA05
[21] = T = 1 week, 25° C./60% RH, Control matrix, mixed sample MLA01 and MLA04
[22] = T = 72 h, Control matrix, mixed sample MLA01 and MLA04

For “RGW02: engineered (modified) peptide derived from ragweed pollen major allergen Amb a 1 (GSSQIWIDHSSLSKS; RGW02* synthetic peptide)”, the “IL-10” value (PBMCs [1]; Subject A) was 248.91 pg/mL, the “IL-10” value (PBMCs [1]; Subject B) was 227.18 pg/mL and the “IL-10” value (PBMCs [1]; Subject C) was 452.45 pg/mL. For the same substance, the “IL-10” value (PBMCs [1]; Subject D) was 80.54 pg/mL, the “IL-10” value (PBMCs [1]; Subject E) was 310.34 pg/mL and the “IL-10” value (PBMCs [1]; Subject F) was 203.12 pg/mL. The “IL-10” value (PBMCs [1]; Subject G) was 283.75 pg/mL, the “level of production of IL-10 compared with the original peptide (RGW02A)” value (PBMCs [1]; seven ragweed allergic individuals (A-G)) was “not significantly different” and the “IFN-gamma production compared with the non-engineered peptide” value (PBMCs [2]) was “does not induce significantly different responses”.
For “TAMKKIQDCYVENGLI (listed as Felis catus) [MLA12, derived from cat allergen Fel d1]”, the “Percentage peak area ratio (% PAR), dimers formed” value (shortened to “Percentage peak area ratio (% PAR)”) [3, 6] was 1.72 % PAR, the “Percentage peak area ratio (% PAR)” value [3, 7] was 3.43 % PAR and the “Percentage peak area ratio (% PAR)” value [3, 8] was 2.13 % PAR. The “Percentage peak area ratio (% PAR)” value [3, 9] was 1.28 % PAR, the “Percentage peak area ratio (% PAR)” value [3, 10] was 0.18 % PAR and the “Percentage peak area ratio (% PAR)” value ([3]; T = 1 week, 25° C./60% RH, Cysteine matrix, mixed sample MLA04 and MLA12) was 0.32 % PAR. The “Percentage peak area ratio (% PAR)” value [3, 11] was 0.46 % PAR, the “Percentage peak area ratio (% PAR)” value [3, 12] was 2.09 % PAR and the “Percentage peak area ratio (% PAR)” value [3, 13] was 1.1 % PAR. The “Percentage peak area ratio (% PAR)” value [3, 14] was 9.78 % PAR, the “Percentage peak area ratio (% PAR)” value ([3]; T = 72 h, Cysteine matrix, mixed sample MLA01 and MLA12) was 0.1 % PAR and the “Percentage peak area ratio (% PAR)” value ([3]; T = 72 h, Cysteine matrix, mixed sample MLA04 and MLA12) was 0.33 % PAR.
For NAQRFGISNYCQI [HDM102], the “Responders with IFN-g >100” value (PBMCs [4]) was 16 and the “Responders with IL-13 >100” value (PBMCs [4]) was 13.
For RFGISNYSQIYPPNVNK [HDM100A], the “Responders with IFN-g >100” value (PBMCs [4]) was 10 and the “Responders with IL-13 >100” value (PBMCs [4]) was 8.
For “NAQRFGISNYBQI (NAQRFGISNY[Abu]QI) [HDM102B, B=2-aminobutyric acid]”, the “Responders with IFN-g >100” value (PBMCs [4]) was 15 and the “Responders with IL-13 >100” value (PBMCs [4]) was 17.
For NAQRFGISNYSQI [HDM102A], the “Responders with IFN-g >100” value (PBMCs [4]) was 14 and the “Responders with IL-13 >100” value (PBMCs [4]) was 16.
For NYCQIYPPNVNKIREA [HDM101], the “Responders with IFN-g >100” value (PBMCs [4]) was 2 and the “Responders with IL-13 >100” value (PBMCs [4]) was 1.
With “HDM203B: house dust mite Der p1 derived peptide of the HDM203 family tested for IL10 production (DLRQMRTVTPIRMQGGSGS; HDM203B* synthetic peptide)” the “IL10 production, engineered versus non-engineered peptides” value (PBMCs [5]) was “not significantly different”.
For NYSQIYPPNVNKIREA [HDM101A], the “Responders with IFN-g >100” value (PBMCs [4]) was 4 and the “Responders with IL-13 >100” value (PBMCs [4]) was 4.
For “RILKNCVDAKMTEEDKE (listed as Felis catus) [MLA05, derived from cat allergen Fel d1]”, the “Percentage peak area ratio (% PAR)” value [3, 15] was 0.55 % PAR, the “Percentage peak area ratio (% PAR)” value [3, 16] was 0.35 % PAR and the “Percentage peak area ratio (% PAR)” value [3, 6] was 1.65 % PAR. The “Percentage peak area ratio (% PAR)” value [3, 17] was 3.18 % PAR, the “Percentage peak area ratio (% PAR)” value [3, 18] was 3.26 % PAR and the “Percentage peak area ratio (% PAR)” value [3, 9] was 1.85 % PAR. For the same substance, the “Percentage peak area ratio (% PAR)” value ([3]; T = 1 week, 25° C./60% RH, Cysteine matrix, individual peptide sample) was 0.21 % PAR, the “Percentage peak area ratio (% PAR)” value [3, 11] was 1.99 % PAR and the “Percentage peak area ratio (% PAR)” value [3, 19] was 2.21 % PAR. The “Percentage peak area ratio (% PAR)” value [3, 20] was 2.25 % PAR and the “Percentage peak area ratio (% PAR)” value [3, 14] was 8.17 % PAR.
For “RFGISNYBQIYPPNVNK (RFGISNY[Abu]QIYPPNVNK) [HDM100B, B=2-aminobutyric acid]”, the “Responders with IFN-g >100” value (PBMCs [4]) was 6 and the “Responders with IL-13 >100” value (PBMCs [4]) was 10.
For “KALPVVLENARILKNCV (listed as Felis catus) [MLA04, derived from cat allergen Fel d1]”, the “Percentage peak area ratio (% PAR)” value [3, 6] was 4.76 % PAR, the “Percentage peak area ratio (% PAR)” value [3, 21] was 2.71 % PAR and the “Percentage peak area ratio (% PAR)” value [3, 18] was 2.32 % PAR. The “Percentage peak area ratio (% PAR)” value [3, 8] was 2.42 % PAR, the “Percentage peak area ratio (% PAR)” value [3, 11] was 2.51 % PAR and the “Percentage peak area ratio (% PAR)” value [3, 22] was 1.32 % PAR. For the same substance, the “Percentage peak area ratio (% PAR)” value [3, 20] was 0.91 % PAR and the “Percentage peak area ratio (% PAR)” value [3, 13] was 0.44 % PAR.
For “CPAVKRDVDLFLT (listed as Felis catus) [MLA01, derived from cat allergen Fel d1]”, the “Percentage peak area ratio (% PAR)” value [3, 15] was 3.85 % PAR, the “Percentage peak area ratio (% PAR)” value ([3]; T = 0, Control matrix, mixed sample MLA01 and MLA04) was 2.92 % PAR and the “Percentage peak area ratio (% PAR)” value [3, 16] was 2.73 % PAR. For the same substance, the “Percentage peak area ratio (% PAR)” value ([3]; T = 0, Control matrix, mixed sample MLA01 and MLA12) was 2.7 % PAR, the “Percentage peak area ratio (% PAR)” value ([3]; T = 0, Cysteine matrix, individual peptide sample) was 0.49 % PAR and the “Percentage peak area ratio (% PAR)” value ([3]; T = 0, Cysteine matrix, mixed sample MLA01 and MLA04) was 0.48 % PAR. For the same substance, the “Percentage peak area ratio (% PAR)” value ([3]; T = 0, Cysteine matrix, mixed sample MLA01 and MLA05) was 0.73 % PAR, the “Percentage peak area ratio (% PAR)” value ([3]; T = 0, Cysteine matrix, mixed sample MLA01 and MLA12) was 0.2 % PAR and the “Percentage peak area ratio (% PAR)” value [3, 6] was 66.81 % PAR. The “Percentage peak area ratio (% PAR)” value [3, 21] was 39.49 % PAR, the “Percentage peak area ratio (% PAR)” value [3, 17] was 45.59 % PAR and the “Percentage peak area ratio (% PAR)” value [3, 7] was 40.03 % PAR. For the same substance, the “Percentage peak area ratio (% PAR)” value ([3]; T = 1 week, 25° C./60% RH, Cysteine matrix, mixed sample MLA01 and MLA04) was 0.52 % PAR, the “Percentage peak area ratio (% PAR)” value ([3]; T = 1 week, 25° C./60% RH, Cysteine matrix, mixed sample MLA01 and MLA05) was 0.26 % PAR and the “Percentage peak area ratio (% PAR)” value [3, 10] was 0.23 % PAR. The “Percentage peak area ratio (% PAR)” value [3, 11] was 43.81 % PAR, the “Percentage peak area ratio (% PAR)” value [3, 22] was 35.47 % PAR and the “Percentage peak area ratio (% PAR)” value [3, 19] was 41.11 % PAR. The “Percentage peak area ratio (% PAR)” value [3, 12] was 29.62 % PAR.
For “NYBQIYPPNVNKIREA (NY[Abu]QIYPPNVNKIREA) [HDM101B, B=2-aminobutyric acid]”, the “Responders with IFN-g >100” value (PBMCs [4]) was 1 and the “Responders with IL-13 >100” value (PBMCs [4]) was 2.
For RFGISNYCQIYPPNVNK [HDM100], the “Responders with IFN-g >100” value (PBMCs [4]) was 6 and the “Responders with IL-13 >100” value (PBMCs [4]) was 6.
